Literature values as cited in PMC11811815.

Target: Usp18 (Mus musculus) (UniProt Q9WTV6)
Chain of UniProt Q9WTV6 (Q9WTV6 whole entry): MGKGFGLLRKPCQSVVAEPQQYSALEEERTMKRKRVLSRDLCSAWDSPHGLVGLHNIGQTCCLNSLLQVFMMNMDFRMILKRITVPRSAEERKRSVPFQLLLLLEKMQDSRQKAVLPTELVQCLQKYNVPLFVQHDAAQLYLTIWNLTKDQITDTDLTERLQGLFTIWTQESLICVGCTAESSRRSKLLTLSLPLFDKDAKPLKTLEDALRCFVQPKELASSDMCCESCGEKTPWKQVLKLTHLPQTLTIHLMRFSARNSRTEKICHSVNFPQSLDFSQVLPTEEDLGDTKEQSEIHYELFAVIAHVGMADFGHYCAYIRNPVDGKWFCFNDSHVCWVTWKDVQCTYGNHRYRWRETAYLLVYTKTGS

Kd: 1300 nM
Substance: Isg15 (from UniProt Q64339)
